Measured values: US20100159468A1

Molecular target: Arf1-V5 (human) (UniProt P84077)
Test: cell-based or functional assay

Arf1-V5 (human), sequence (P84077 2-181): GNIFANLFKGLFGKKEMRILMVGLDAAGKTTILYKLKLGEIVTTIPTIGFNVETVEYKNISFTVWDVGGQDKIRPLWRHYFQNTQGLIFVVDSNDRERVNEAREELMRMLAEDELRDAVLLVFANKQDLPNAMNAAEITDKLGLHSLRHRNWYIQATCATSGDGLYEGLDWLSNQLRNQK

Arf1-GTP level (GST-GGA3 pulldown, Western blot band intensity) in BFA-treated Vero cells expressing GBF1-M832L: 45 % of control
Arf1-GTP level (GST-GGA3 pulldown, Western blot band intensity) in GCA-treated Vero cells expressing GBF1-M832L: 86 % of control
Substance: GBF1-M832L-HA (hamster GBF1 with M830L, M832L relative to human GBF1, HA-tagged) (from UniProt Q9R1D7 1-1856)
